{
  "source": "patent US6335176B1",
  "about": "“Incorporation of phosphorylation sites” (Pharmacopeia, Inc., priority 1998, dated 2002)",
  "key": {"EpoR-Fc": {"molecular_target": "T1, EpoR-Fc (Homo sapiens, UniProt P19235)", "T1 construct": "containing the extracellular domain of the erythropoietin receptor fused to the Fc region of human IgG", "T1 sequence (P19235 25-250 limits assumed)": "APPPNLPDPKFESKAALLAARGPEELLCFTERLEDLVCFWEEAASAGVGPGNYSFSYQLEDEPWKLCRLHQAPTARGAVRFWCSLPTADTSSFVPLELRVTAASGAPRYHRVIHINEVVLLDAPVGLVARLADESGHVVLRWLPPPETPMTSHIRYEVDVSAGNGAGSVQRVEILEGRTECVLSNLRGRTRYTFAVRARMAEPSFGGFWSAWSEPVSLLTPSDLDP", "experiment": "Saturation binding of Epo-Fc-[33P]phosphopeptide A to EpoR-Fc surface-coated plates", "protocol": "(§1) Ligand Binding Assays in Elisa Plate Format. Costar EIA 96-well microtiter plates (assay plates) were coated with 40 ul/well of a solution of anchoring antibody (˜1-5 ug/ml) or binding protein (0.1-0.5 ug/ml) in TBS and incubated overnight at 4° C. Plates were then blocked with 80 ul/well of 1% BSA/TBS for 30 min. Following removal of the blocking protein, 40 ul/well of receptor or receptor fusion protein (0.1-0.5 ug/ml) was added to the plate and incubated at ambient temperature for one hr. if an anchoring antibody step was used. The assay plate was then washed with TBS/0.01% BSA and 40 ul/well ligand at indicated concentrations was added. The assay plate was allowed to incubate at ambient temp. for ˜1-3 hr. with shaking and then washed three times with TBS/0.01% Tween 20 using a SkanWasher300 plate washer (Skatron, Sterling, Va.). Radiolabel was detected by the addition of 80 ul/well of Optiphase (Wallac, Turku, Finland) and the assay plate counted on a Wallace MicroBeta scintillation counter.\nThe cytokine receptor for erythropoietin was studied as a recombinant soluble Fc-fusion protein containing the extracellular domain of the erythropoietin receptor fused to the Fc region of human IgG. The ligand for this receptor, erythropoietin (Epo) was also prepared as an Fc-fusion, specifically as a fusion to the Fc region of mouse IgG. […]"}, "CXC2 receptor": {"molecular_target": "T2, CXC2 receptor (Homo sapiens, UniProt P25025)", "T2 construct": "expressed in transfected cells; host or cells: CHO cells", "T2 sequence (P25025 1-360)": "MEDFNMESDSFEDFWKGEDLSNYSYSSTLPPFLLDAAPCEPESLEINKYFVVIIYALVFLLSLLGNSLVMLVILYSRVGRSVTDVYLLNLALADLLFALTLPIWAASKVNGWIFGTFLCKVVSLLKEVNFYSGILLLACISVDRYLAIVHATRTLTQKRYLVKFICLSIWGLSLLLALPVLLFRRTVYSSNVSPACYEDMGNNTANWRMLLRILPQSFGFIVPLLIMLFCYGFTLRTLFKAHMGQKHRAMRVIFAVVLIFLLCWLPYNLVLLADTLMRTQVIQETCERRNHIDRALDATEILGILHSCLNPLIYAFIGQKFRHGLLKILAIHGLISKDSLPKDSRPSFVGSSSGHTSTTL", "experiment": "Binding of IL8-[33P]phosphopeptide A to CXC2 receptors on CHO cells", "protocol": "(§2) Ligand Binding Assays using Cells or Membranes. Cultured cells expressing the receptor of interest were suspended to ˜1.6×10^6 per ml in DMEM containing 0.1% FBS. 100 ul aliquots were incubated in a 96-well U-bottom polypropylene microtiter plate (assay plate) containing the indicated ligands. After the appropriate incubation time (˜1-3 hrs) cells were transferred to 1.5 ml eppendorf tubes and centrifuged at 2000 rpm (358×g) for 2 min at 6° C., supernatants aspirated and cells resuspended in 1 ml cell media and centrifuged again. The washed cells were resuspended in 20 ul of cell media and transferred to a microtiter plate, 80 ul/well of Optiphase® (Wallac, Turku, Finland) scintillation cocktail added and plates counted in a Wallac MicroBeta scintillation counter. For cells or membranes harvested by filtration, transfers from the assay plate were made directly to a Millipore 1.2 um GF/C filter plate treated or untreated with 0.3% PEI. Wells were washed with DMEM (3×100 ul) and a final wash with 100 ul water. Scintillation cocktail was added as described above.\n(§3) Several ligands for commonly studied receptor families, G protein-coupled receptors (GPCRs) and cytokine receptors were labeled using the reagent of the invention. […]"}, "NK2 receptor": {"molecular_target": "T3, NK2 receptor (Rattus norvegicus, UniProt P16610)", "T3 construct": "expressed in transfected cells; host or cells: CHO cells", "T3 sequence (P16610 1-390)": "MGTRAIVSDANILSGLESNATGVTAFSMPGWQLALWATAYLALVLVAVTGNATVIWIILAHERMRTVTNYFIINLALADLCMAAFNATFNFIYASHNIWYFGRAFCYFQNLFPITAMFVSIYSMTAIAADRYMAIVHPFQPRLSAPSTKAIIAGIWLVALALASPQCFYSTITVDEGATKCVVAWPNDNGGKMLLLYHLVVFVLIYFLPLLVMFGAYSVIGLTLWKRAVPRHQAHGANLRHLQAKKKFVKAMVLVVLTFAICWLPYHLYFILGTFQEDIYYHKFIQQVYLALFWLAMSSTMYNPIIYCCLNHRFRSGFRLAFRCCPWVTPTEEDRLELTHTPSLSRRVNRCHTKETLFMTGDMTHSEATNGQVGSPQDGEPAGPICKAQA", "experiment": "Binding of NKA-[33P]phosphopeptide A to NK2 receptors on CHO cells (whole cell)", "protocol": "as §2, §3"}, "ObR-Fc": {"molecular_target": "T4, ObR-Fc (Homo sapiens, UniProt P48357)", "T4 construct": "containing the extracellular domain of the ObR fused to the Fc region of human IgG; purchased R&D Systems, Minneapolis, Minn", "T4 sequence (P48357 22-839 limits assumed)": "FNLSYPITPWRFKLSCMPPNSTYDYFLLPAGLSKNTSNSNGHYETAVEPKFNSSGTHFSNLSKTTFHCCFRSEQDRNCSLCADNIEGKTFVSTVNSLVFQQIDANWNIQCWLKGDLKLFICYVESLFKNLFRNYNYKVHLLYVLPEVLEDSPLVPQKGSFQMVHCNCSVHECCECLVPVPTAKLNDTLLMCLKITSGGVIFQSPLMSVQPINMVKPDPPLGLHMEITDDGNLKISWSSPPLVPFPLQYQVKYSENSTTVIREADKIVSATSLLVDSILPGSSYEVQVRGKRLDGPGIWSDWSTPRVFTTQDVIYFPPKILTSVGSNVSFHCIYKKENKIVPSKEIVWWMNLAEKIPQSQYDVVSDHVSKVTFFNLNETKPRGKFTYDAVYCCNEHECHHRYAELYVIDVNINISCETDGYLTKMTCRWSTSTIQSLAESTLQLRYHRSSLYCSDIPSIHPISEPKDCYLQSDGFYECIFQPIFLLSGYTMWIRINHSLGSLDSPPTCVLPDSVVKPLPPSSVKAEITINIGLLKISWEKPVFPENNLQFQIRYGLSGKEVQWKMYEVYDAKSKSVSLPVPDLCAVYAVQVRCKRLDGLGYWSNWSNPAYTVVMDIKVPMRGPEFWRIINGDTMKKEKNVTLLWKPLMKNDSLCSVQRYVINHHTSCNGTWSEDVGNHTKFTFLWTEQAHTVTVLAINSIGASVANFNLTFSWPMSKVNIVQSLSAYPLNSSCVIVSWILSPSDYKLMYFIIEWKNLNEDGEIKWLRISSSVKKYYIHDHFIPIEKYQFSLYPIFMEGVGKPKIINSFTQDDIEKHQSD", "experiment": "Saturation binding of leptin-[33P]phosphopeptide A to ObR-Fc surface-coated plates", "conditions": "at the highest concentration of labeled ligand", "protocol": "as §1\nThe cytokine receptor for leptin, the Ob receptor (ObR), was studied as a soluble Fc-fusion protein containing the extracellular domain of the ObR fused to the Fc region of human IgG (R&D Systems, Minneapolis, Minn.). The ligand for this receptor, leptin (R&D Systems) was phosphorylated according to the method of invention as described above."}, "[1]": {"molecular_target": "NK2 receptor recombinantly expressed in CHO cells", "sequence (P21452 whole entry)": "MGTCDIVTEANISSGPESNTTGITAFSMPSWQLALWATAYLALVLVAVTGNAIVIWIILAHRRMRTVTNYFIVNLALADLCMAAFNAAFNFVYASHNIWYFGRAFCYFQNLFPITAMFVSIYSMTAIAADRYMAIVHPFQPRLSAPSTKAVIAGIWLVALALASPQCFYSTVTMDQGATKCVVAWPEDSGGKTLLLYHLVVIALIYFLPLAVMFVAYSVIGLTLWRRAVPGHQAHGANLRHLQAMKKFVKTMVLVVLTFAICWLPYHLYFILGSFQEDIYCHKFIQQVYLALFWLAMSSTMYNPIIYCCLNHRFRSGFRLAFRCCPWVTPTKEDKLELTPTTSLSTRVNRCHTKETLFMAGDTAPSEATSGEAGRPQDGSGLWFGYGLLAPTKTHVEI", "experiment": "saturation radioligand binding, CHO cells, 160,000 cells/assay (FIG. 9A)"}, "[2]": {"conditions": "saturation binding, 160,000 cells/assay"}},
  "note": "Bridge positions count the residues as written; N and C are the ends. Square brackets hold non-standard residues; d marks the D form. Ends that are not written are not given here. I, II: the chains in the order shown. pS = N[C@@H](COP(=O)(O)O)C(=O)O",
  "data": [
    {"molecule": "N-α-acetyl-S-[Epo-Fc-8-amido-(6-aminothioacetyl)hexonyl]cys-ser-arg-arg-ala-[^33PO3]phosphoser-val-tyr-amide [Epo-Fc-[^33P]phosphopeptide A]", "values": [
      {"measurement": "amount detected at the highest concentration of labeled ligand", "setting": "EpoR-Fc", "value": "~20", "unit": "Fmol/well"}
    ]},
    {"molecule": "N-α-acetyl-S-[IL8-amido-(6-aminothioacetyl)hexonyl]cys-ser-arg-arg-ala-[^33PO3]phosphoser-val-tyr-amide1-4 [IL8-[^33P]phosphopeptide A]", "values": [
      {"measurement": "specific binding to its receptor", "setting": "CXC2 receptor; 33P-labeled ligand, FIG. 8", "value": "bound specifically"},
      {"measurement": "Bmax", "setting": "CXC2 receptor; [2]", "value": "110,000 receptors/cell"}
    ]},
    {"molecule": "N-α-acetyl-S-[NKA-lys2N^e-amido-(6-aminothioacetyl)hexonyl]cys-ser-arg-arg-ala-[^33PO3]phosphoser-val-tyr-amide (peptide 1 HKTRSFVGLM-NH2; peptide 2 Ac-CSRRASVY-NH2; bridge I:2-II:1; not fully specified (some residues, bridges); printed as N-α-acetyl-S-[NKA-lys2N^e-amido-(6-aminothioacetyl)hexonyl]cys-ser-arg-arg-ala-[^33PO3]phosphoser-val-tyr-amide; also: phosphoserine carries [33P]phosphate label) [NKA-[^33P]phosphopeptide A]", "values": [
      {"measurement": "specific binding to its receptor", "setting": "NK2 receptor; 33P-labeled ligand, FIG. 8", "value": "bound specifically"},
      {"measurement": "Bmax", "setting": "NK2 receptor; [2]", "value": "700,000 receptors/cell"}
    ]},
    {"molecule": "N-α-acetyl-S-[leptin-amido-)6-aminothioacetyl)hexonyl]cys-ser-arg-arg-ala-[^33PO3]phosphoser-val-tyr-amide1-2 [leptin [^33P]phosphopeptide A]", "values": [
      {"measurement": "saturation binding", "setting": "ObR-Fc", "value": "Binding was detected"}
    ]},
    {"molecule": "Neurokinin A-[^33PO3]peptide A conjugate (NKA-lys2N^e-[^33PO3]peptide A) (bridge I:2-II:1; not fully specified (some residues, bridges); printed as N-&agr,-acetyl-S-[NKA-lys2Ne-amido-(6-aminothioacetyl)hexonyl]cys-ser-arg-arg-ala-[33PO3]phosphoser-val-tyr-amide; also: 33P-labelled phosphate on phosphoserine of chain 2) peptide 1: HKTRSFVGLM-NH2 peptide 2: Ac-CSRRA[pS]VY-NH2", "values": [
      {"measurement": "Bmax (receptors/cell)", "setting": "[1]", "value": 700000}
    ]}
  ]
}
